Substitutions are numbered along the chain they refer to. Values belong to the binder of their own block, whether it stands above or below them. Ends that are not written are not given here.
Legend:
murine IL20 = biological target: T1, murine IL20 (mouse, UniProt Q9JKV9 25-176); assay: cell-based or functional assay
T1 sequence: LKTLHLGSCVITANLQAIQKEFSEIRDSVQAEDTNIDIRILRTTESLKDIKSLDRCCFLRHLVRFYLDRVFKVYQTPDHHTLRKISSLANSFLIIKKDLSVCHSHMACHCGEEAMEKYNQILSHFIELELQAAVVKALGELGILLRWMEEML

[1] = biological target: T2, recombinant human interleukin-20 (human, UniProt Q9NYY1 25-176); assay: cell-based or functional assay
T2 sequence: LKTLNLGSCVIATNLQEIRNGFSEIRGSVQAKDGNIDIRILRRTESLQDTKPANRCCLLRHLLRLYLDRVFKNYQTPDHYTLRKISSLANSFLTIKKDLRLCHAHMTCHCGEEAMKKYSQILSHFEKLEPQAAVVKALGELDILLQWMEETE

cynomolgus IL20 = biological target: T3, cynomolgus IL20 (cynomolgus monkey, UniProt Q9NYY1 25-176 (human entry)); assay: cell-based or functional assay
T3 chain: T2 sequence with N54D, R55Q, P77L, S119G, K127E

[2] = biological target: T2, recombinant human interleukin-20; assay: SPR (Biacore 3000/T100), antibody amine-coupled on CM5, recombinant hIL20 injected 3.125-100 nM, 1:1 Langmuir, 25 C; antibody from hybridoma
Protocol: Affinity studies were performed using a direct binding procedure, with the monoclonal antibody covalently coupled via free amine groups to the carboxymethylated dextrane membrane (CM5) on the sensor chip surface. […] The kinetic parameters for the interaction could be calculated using a 1:1 interaction Langmuir fitting model.
The purified monoclonal antibodies were immobilized in individual flow cells on a CM5 type sensor chip. Immobilizations were performed using a standard amine coupling procedure, aiming for an immobilization level of 1000 Resonance Units (RU). The antibodies were diluted to 5 μg/ml in 10 mM NaAc pH 5.0. […] Association (injection) was 3 min., followed by a 30 min. dissociation (wash) period. Flow rate was 30 μl/min. Experiments were performed at 25° C. Regeneration of the surface following each cycle, was accomplished by injection of 30 sec. pulse of 10 mM Glycin-HCl pH 1.8, at a 30 ul/min flow rate. Detection in all flow cells simultaneously. Flow cell No. 1 contained no immobilized antibody, and was used for subtraction of background and bulk. […] Data was inspected for mass-transport limitations prior to calculation of the kinetic parameters. Experiments were performed on Biacore 3000 and T100 instruments. Data was evaluated using Biaeval 4.1 and Biacore T100 evaluation software.

[3] = biological target: T4, Peptide no. 86 (Figure 6A); assay: 18mer hIL20 peptide array on cellulose, 4 residue walk; fluorescein-labelled antibody; fluorescence as OD
T4 construct: also called Peptide no
T4 peptide: NYQTPDHYTLRKISSLAN
Protocol: (§1) The screenings were done using fluorescence labelled antibodies. The labelling was done by gel-filtering the antibody stock against 1% NaHCO3, using NAP5 column (GE Healthcare according the manual from manufacturer. This was followed by adding 25 mole equivalents of 5(6)-carboxyfluorescein N-hydroxysuccinimide ester (Sigma, C1609) dissolved in DMSO. The coupling was allowed to continue for 2 hours followed by a gelfiltration against TRIS washing buffer (50 mM TRIS, pH=7.4, 0.15M NaCl, 0.1 M ArgHCl, 0.05% Tween 20) in order to removed uncoupled fluorescein.
(§2) Screening of arrays were done by adding 10 μl of antibody to 30 ml incubation buffer (0.5% BSA, 50 mM TRIS, pH=7.4, 0.15M NaCl, 0.1 M ArgHCl, 0.05% Tween 20). The sheets were incubated for 1-2 hours, followed by washing five times with washing buffer. […] The fluorescence intensity were measured and transformed into digits that were exported to Prism 5 (Graph Pad Software, USA) for further analysis.

[4] = biological target: T5, Peptide no. 87 (Figure 6A); assay: as above
T5 construct: also called Peptide no
T5 peptide: PDHYTLRKISSLANSFLT
Protocol: as §1, §2

[5] = biological target: T2, recombinant human interleukin-20; assay: cell-based or functional assay; remark: listed apart in the source
[6] = biological target: T6, Peptide no. 15 (Figures 7A, 7B) (N-terminus acylated); assay: array of terminally truncated, acylated hIL20 peptides on cellulose; fluorescein-labelled antibody; fluorescence as OD
T6 construct: peptide array on cellulose
T6 peptide: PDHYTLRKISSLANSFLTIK
Protocol: as §1, §2

[7] = biological target: T7, Peptide no. 1 (Figures 7A, 7B) (N-terminus acylated); assay: as above
T7 construct: peptide array on cellulose
T7 peptide: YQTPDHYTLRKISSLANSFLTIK
Protocol: as §1, §2

[8] = biological target: T8, Peptide no. 5 (Figures 7A, 7B) (also: N-terminus acylated); assay: as above
T8 construct: peptide array on cellulose
T8 peptide: YQTPDHYTLRKISSLANSF
Protocol: as §1, §2

[9] = biological target: T9, Peptide no. 16 (Figures 7A, 7B) (also: N-terminus acylated); assay: as above
T9 construct: peptide array on cellulose
T9 peptide: DHYTLRKISSLANSFLTIK
Protocol: as §1, §2

[10] = biological target: T10, Peptide no. 2 (Figures 7A, 7B) (N-terminus acylated); assay: as above
T10 construct: peptide array on cellulose
T10 peptide: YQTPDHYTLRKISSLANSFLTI
Protocol: as §1, §2

[11] = biological target: T11, Peptide no. 13 (Figures 7A, 7B) (N-terminus acylated); assay: as above
T11 construct: peptide array on cellulose
T11 peptide: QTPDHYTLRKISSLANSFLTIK
Protocol: as §1, §2

[12] = biological target: T12, Peptide no. 3 (Figures 7A, 7B) (N-terminus acylated); assay: as above
T12 construct: peptide array on cellulose
T12 peptide: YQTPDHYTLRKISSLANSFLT
Protocol: as §1, §2

[13] = biological target: T13, Peptide no. 4 (Figures 7A, 7B) (N-terminus acylated); assay: as above
T13 construct: peptide array on cellulose
T13 peptide: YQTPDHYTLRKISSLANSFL
Protocol: as §1, §2

[14] = biological target: T14, Peptide no. 14 (Figures 7A, 7B) (N-terminus acylated); assay: as above
T14 construct: peptide array on cellulose
T14 peptide: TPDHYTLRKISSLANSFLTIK
Protocol: as §1, §2

[15] = biological target: T15, Peptide no. 18 (Figures 7A, 7B) (also: N-terminus acylated); assay: as above
T15 construct: peptide array on cellulose
T15 peptide: YTLRKISSLANSFLTIK
Protocol: as §1, §2

[16] = biological target: T16, Peptide no. 6 (Figures 7A, 7B) (also: N-terminus acylated); assay: as above
T16 construct: peptide array on cellulose
T16 peptide: YQTPDHYTLRKISSLANS
Protocol: as §1, §2

[17] = biological target: T17, Peptide no. 7 (Figures 7A, 7B) (also: N-terminus acylated); assay: as above
T17 construct: peptide array on cellulose
T17 peptide: YQTPDHYTLRKISSLAN
Protocol: as §1, §2

[18] = biological target: T18, Peptide no. 17 (Figures 7A, 7B) (also: N-terminus acylated); assay: as above
T18 construct: peptide array on cellulose
T18 peptide: HYTLRKISSLANSFLTIK
Protocol: as §1, §2

[19] = biological target: T19, Peptide no. 41 (Figure 8A); assay: Ala-scan peptide array of hIL20 74-96 on cellulose; fluorescein-labelled antibody; fluorescence as OD
T19 construct: Ala-scan peptide on the array; also called Peptide no; Q75A
T19 peptide: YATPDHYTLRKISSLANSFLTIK
Protocol: as §1, §2

- efficacy (percentage inhibition) of IL20-induced proliferation of BaF-3(hIL20R) (murine IL20): ~100%
- efficacy (percentage inhibition) of IL20-induced proliferation of BaF-3(hIL20R) [1]: ~100%
- efficacy (percentage inhibition) of IL20-induced proliferation of BaF-3(hIL20R) (cynomolgus IL20): ~100%
- Kd [2]: 0.55 nM
- koff [2]: 0.00011 s⁻¹
- kon [2]: 190000 M⁻¹ s⁻¹
- binding result [3]: binds
- binding result [4]: binds
- IC50, inhibition of IL20 induced proliferation of BaF-3(hIL20R) at 1e-9M hIL20 (assay 1) [5]: 180 nM
- IC50, inhibition of IL20 induced proliferation of BaF-3(hIL20R) at 1e-9M hIL20 (assay 2) [5]: 420 nM
- IC50, inhibition of IL20 induced proliferation of BaF-3(hIL20R) at 1e-9M hIL20 (assay 3) [5]: 340 nM
- IC50, inhibition of IL20 induced proliferation of BaF-3(hIL20R) at 1e-9M hIL20 (assay 6) [5]: 120 nM
- IC50, inhibition of IL20 induced proliferation of BaF-3(hIL20R) at 1e-9M hIL20 (assay 7) [5]: 436 nM
B1: human anti-hIL20 monoclonal antibody 15D2 (antibody, V domains shown)
VH: QVQLVQSGAEVKRPGASVKVSCKASGYTFTNDIIHWVRQAPGQRLEWMGWINAGYGNTQYSQNFQDRVSITRDTSASTAYMELISLRSEDTAVYYCAREPLWFGESSPHDYYGMDVWGQGTTVTVSS
VL: AIQLTQSPSSLSASVGDRVTITCRASQGISSALAWYQQKPGKAPKLLIYDASSLESGVPSRFSGSGSGTDFTLTISSLQPEDFATYYCQQFNSYPLTFGGGTKVEIKR
notes: also called 15D2-wt; 15D2 wild-type

- binding result [6]: binds
- binding result [7]: binds
- binding result [8]: binds
- binding result [9]: binds
- binding result [10]: binds
- binding result [11]: binds
- binding result [12]: binds
- binding result [13]: binds
- binding result [14]: binds
- binding result [15]: no binding
- binding result [16]: binds
- binding result [17]: binds
- binding result [18]: binds
- Kd [2]: 0.75 nM
- koff [2]: 0.0001 s⁻¹
- kon [2]: 140000 M⁻¹ s⁻¹
- IC50, inhibition of IL20 induced proliferation of BaF-3(hIL20R) at 1e-9M hIL20 (assay 1) [5]: 260 nM
- IC50, inhibition of IL20 induced proliferation of BaF-3(hIL20R) at 1e-9M hIL20 (assay 2) [5]: 4540 nM
- IC50, inhibition of IL20 induced proliferation of BaF-3(hIL20R) at 1e-9M hIL20 (assay 3) [5]: 760 nM
- IC50, inhibition of IL20 induced proliferation of BaF-3(hIL20R) at 1e-9M hIL20 (assay 6) [5]: 200 nM
- binding result [19]: binds
B2: human anti-hIL20 monoclonal antibody 5B7 (antibody, human IgG4, V domains shown)
VH: B1 VH with T30S, N31S, D32H, I34M, Q59K, S69T, S106L
VL: B1 VL
notes: described as human IgG4; also called 5B7-wt

Source: patent US20130039923A1 (Novo Nordisk, published 2013)
